Measured values as given in patent publication US20210139581A1 (Alector, published 2021).
Read-outs that look alike come from different tables or passages of the source.

B1: AB-14.1 (antibody, V domains shown)
VH: QVQLVQSGAEVKKPGASVKVSCKASGATFTDYNFHWVRQAPGQGLEWIGFIYPSNGITGYAQDFQGRVTMTVDTSTSTVYMELSSLRSEDTAVYYCARSDVDYFDYWGQGTLVTVSS
VL: DIQMTQSPSSLSASVGDRVTITCRASQSVSTSTYSYMHWYQQKPGKAPKLLIKYASNLESGVPSRFSGSGSGTDFTLTISSLQPEDFATYYCQHSWEIPLTFGQGTKLEIK
B2: AB-H3 (antibody, V domains shown)
VH: QVQLVQSGAEVKKPGASVKISCKASGYTFTDYNLHWVRQAPGQGLEWIGFIYPSNGITGYAQKFQGRATLTVDTSTSTAYMELSSLRSEDTAVYYCARSTVDYFDYWGQGTLLTVSS
VL: DIQMTQSPSSLSASVGDRVTITCRASQSVSTSTYSYMHWYQQKPGKAPKLLIYYASNLESGVPSRFSGSGSGTDFTLTISSLQPEDFATYYCQHSWEIPLTFGQGTKLEIK
notes: Humanized variant of murine 2F5.1
B3: AB-H22 (antibody, V domains shown)
VH: QVQLVQSGAEVKKPGASVKISCKASGYTFTDYNLHWVRQAPGQRLEWIGFIYPSNGITGYNQKFKNKATLTVDTSASTAYMELSSLRSEDTAVYYCARSTVDYFDYWGQGTTVTVSS
VL: DIQMTQSPSSLSASVGDRVTITCRASQSVSTSTYSYMHWYQQKPGKAPKLLIKYASNLESGVPSRFSGSGSGTDFTLTISSLQPEDFATYYCQHSWEIPLTFGQGTKLEIK
notes: Humanized variant of murine 2F5.1; also called AB-22
B4: AB-H24 (antibody, V domains shown)
VH: QVQLVQSGAEVKKPGASVKISCKASGYTFTDYNLHWVRQAPGQRLEWIGFIYPSNGITGYSQKFQGKATLTVDTSASTAYMELSSLRSEDTAVYYCARSTVDYFDYWGQGTTVTVSS
VL: DIQMTQSPSSLSASVGDRVTITCRASQSVSTSTYSYMHWYQQKPGKAPKLLIKYASNLESGVPSRFSGSGSGTDFTLTISSLQPEDFATYYCQHSWEIPLTFGQGTKLEIK
notes: Humanized variant of murine 2F5.1; also called AB-24
B5: AB-H26 (antibody, V domains shown)
VH: QVQLVQSGAEVKKPGASVKVSCKASGYTFTDYNLHWVRQAPGQRLEWIGFIYPSNGITGYSQKFQGRATLTVDTSASTAYMELSSLRSEDTAVYYCARSTVDYFDYWGQGTTVTVSS
VL: DIQMTQSPSSLSASVGDRVTITCRASQSVSTSTYSYMHWYQQKPGKAPKLLIKYASNLESGVPSRFSGSGSGTDFTLTISSLQPEDFATYYCQHSWEIPLTFGQGTKLEIK
notes: Humanized variant of murine 2F5.1; also called AB-26
B6: AB-63.18 (antibody, V domains shown)
VH: QVQLVQSGAEVKKPGSSVKVSCKASGYTHTDYNLHWVRQAPGQGLEWIGFIYPSNGITGYAQKFQGRVTMTVDTSTSTVYMELSSLRSEDTAVYYCARSDVDYFDYWGQGTLVTVSS
VL: DIVLTQSPDSLAVSLGERATINCRASQSVSTSTYSYMHWYQQKPGQPPKLLIKYESNLESGVPDRFSGSGSGTDFTLTISSLQAEDVAVYYCQHSWEIPLTFGQGTKLEIK
B7: AB-63.16 (antibody, V domains shown)
VH: QVQLVQSGAEVKKPGASVKVSCKASGYTFTDYNYHWVRQAPGQGLEWIGFIYPSNGITGYAQKFQGRVTMTVDTSTSTVYMELSSLRSEDTAVYYCARSDVDYFDYWGQGTLVTVSS
VL: DIVLTQSPDSLAVSLGERATINCRASQSVHTSTYSYMHWYQQKPGQPPKLLIKYASNLESGVPDRFSGSGSGTDFTLTISSLQAEDVAVYYCQHSWEIPLTFGQGTKLEIK
B8: AB-H71 (antibody, V domains shown)
VH: QVQLVQSGAELKKPGASVKVSCKASGYTFTDYNLHWVRQAPGQRLEWIGFIYPSNGITGYSQKFQGKATLTVDTSASTAYMELSSLRSEDTAVYYCARSTVDYFDYWGQGTTVTVSS
VL: DIVLTQSPDSLAVSLGERATINCRASQSVSTSTYSYMHWYQQKPGQPPKLLIKYASNLESGVPDRFSGSGSGTDFTLTISSLQAEDVAVYYCQHSWEIPLTFGQGTKLEIK
notes: Humanized variant of murine 2F5.1; also called AB-71
B9: AB-63.17 (antibody, V domains shown)
VH: QVQLVQSGAEVKKPGASVKVSCKASGYTFTDYNYHWVRQAPGQGLEWIGFIYPSNGITGYAQKFQGRVTMTVDTSTSTVYMELSSLRSEDTAVYYCARSDVDYFDYWGQGTLVTVSS
VL: DIVLTQSPDSLAVSLGERATINCRGSQSVSTSTYSYMHWYQQKPGQPPKLLIKYESNLESGVPDRFSGSGSGTDFTLTISSLQAEDVAVYYCQHSWEIPLTFGQGTKLEIK
B10: AB-14.2 (antibody, V domains shown)
VH: QVQLVQSGAEVKKPGASVKVSCKASGATFTDYNYHWVRQAPGQGLEWIGFIYPSNGITGYAQKFQDRVTMTVDTSTSTVYMELSSLRSEDTAVYYCARSFVDYFDYWGQGTLVTVSS
VL: DIQMTQSPSSLSASVGDRVTITCRASQDVSTSTYSYMHWYQQKPGKAPKLLIKYASNLESGVPSRFSGSGSGTDFTLTISSLQPEDFATYYCQHSWEIPLTFGQGTKLEIK
B11: AB-H6 (antibody, V domains shown)
VH: QVQLVQSGAEVKKPGASVKVSCKASGYTFTDYNLHWVRQAPGQGLEWMGFIYPSNGITGYAQKFQGRVTMTVDTSTSTAYMELSSLRSEDTAVYYCARSTVDYFDYWGQGTTVTVSS
VL: DIQMTQSPSSLSASVGDRVTITCRASQSVSTSTYSYMHWYQQKPGKAPKLLIYYASNLESGVPSRFSGSGSGTDFTLTISSLQPEDFATYYCQHSWEIPLTFGQGTKLEIK
notes: as for B2
B12: AB-14.3 (antibody, V domains shown)
VH: QVQLVQSGAEVKKPGASVKVSCKASGYTFTDYNYHWVRQAPGQGLEWIGFIYPSNGITGSAQKFQGRVTMTVDTSTSTVYMELSSLRSEDTAVYYCARSDVDYFDYWGQGTLVTVSS
VL: DIQMTQSPSSLSASVGDRVTITCRASQDVSTSTYSYMHWYQQKPGKAPKLLIKYVSNLESGVPSRFSGSGSGTDFTLTISSLQPEDFATYYCQHSWEIPLTFGQGTKLEIK
B13: AB-H1 (antibody, V domains shown)
VH: QVQLVQSGAEVKKPGASVKVSCKASGYTFTDYNLHWVRQAPGQGLEWMGFIYPSNGITGYAQKFQGRVTMTRDTSTSTVYMELSSLRSEDTAVYYCARSTVDYFDYWGQGTLVTVSS
VL: DIQMTQSPSSLSASVGDRVTITCRASQSVSTSTYSYMHWYQQKPGKAPKLLIYYASNLESGVPSRFSGSGSGTDFTLTISSLQPEDFATYYCQHSWEIPLTFGQGTKLEIK
notes: as for B2
B14: AB-H11 (antibody, V domains shown)
VH: QVQLVQSGAEVKKPGASVKVSCKASGYTFTDYNLHWVRQAPGQSLEWIGFIYPSNGITGYSQKFQGKATLTVDTSASTAYMELSSLRSEDTAVYYCARSTVDYFDYWGQGTTVTVSS
VL: DIQMTQSPSSLSASVGDRVTITCRASQSVSTSTYSYMHWYQQKPGKAPKLLIYYASNLESGVPSRFSGSGSGTDFTLTISSLQPEDFATYYCQHSWEIPLTFGQGTKLEIK
notes: as for B2

Experiments:
[1] = biological target: T1, human CD33 on primary human monocyte-derived dendritic cells (human, UniProt P20138 18-364); assay: cell-based or functional assay
T1 sequence (P20138 18-364): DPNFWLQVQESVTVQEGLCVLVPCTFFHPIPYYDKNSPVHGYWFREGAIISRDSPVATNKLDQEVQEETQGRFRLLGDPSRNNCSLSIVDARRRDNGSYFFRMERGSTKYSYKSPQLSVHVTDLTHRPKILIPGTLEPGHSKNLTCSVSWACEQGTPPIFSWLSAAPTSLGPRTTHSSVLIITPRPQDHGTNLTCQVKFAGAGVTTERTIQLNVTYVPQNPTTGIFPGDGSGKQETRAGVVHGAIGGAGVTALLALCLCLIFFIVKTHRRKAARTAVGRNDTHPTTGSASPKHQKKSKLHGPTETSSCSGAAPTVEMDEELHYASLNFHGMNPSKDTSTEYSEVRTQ

human CD33 [2] = biological target: T2, human CD33 (human, UniProt P20138 18-259, limits assumed); assay: BLI (ForteBio), Fab 100 nM on immobilized CD33
T2 construct: Human CD33 immobilized on the BLI sensor tip or the BIAcore C1 chip; also called Siglec-3
T2 sequence (P20138 18-259 limits assumed): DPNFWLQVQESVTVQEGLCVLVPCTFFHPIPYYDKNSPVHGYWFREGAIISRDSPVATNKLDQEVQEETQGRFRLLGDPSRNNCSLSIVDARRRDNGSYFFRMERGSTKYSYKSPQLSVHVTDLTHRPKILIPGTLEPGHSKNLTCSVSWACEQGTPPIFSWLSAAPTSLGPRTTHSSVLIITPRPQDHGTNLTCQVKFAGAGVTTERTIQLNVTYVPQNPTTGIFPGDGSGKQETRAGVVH
Method: The affinities (KD) of the humanized antibodies for human CD33 were measured for each antibody by BioLayer Interferometry in a ForteBio assay according to standard techniques (Estep et al. (2013) MAbs 5(2): 270-8). […] The assay was carried out at room temperature.
The affinities of AB-H14 and its affinity-matured variants (Table 15) and AB-H63 and its affinity-matured variants (Table 16), for human CD33 were measured by Fortebio assay according to the method described in Example 1 above.

human CD33 [3] = biological target: T2, human CD33; assay: SPR (BIAcore), Fab over CD33 on C1 chip
Method: The affinity parameters for 10 of the 88 humanized antibodies (AB-H1, AB-H3, AB-H6, AB-H11, AB-H22, AB-H24, AB-H26, AB-H63, AB-H64, and AB-H71) were measured in a separate experiment by a more sensitive technique, surface plasmon resonance (BIAcore), and compared to Chimeric Ab and Chimeric Ab #2. BIAcore measurements were performed as follows: human CD33 was immobilized on the surface of a C1 chip, and Fabs were injected for 300 s to monitor association, followed by a 900 s flow in running buffer to monitor dissociation. The Fabs were measured at 5 concentrations: a high concentration of 27 nM and 3-fold serial dilutions.

[4] = biological target: T1, human CD33 on primary human …; assay: cell-based or functional assay; remark: listed apart in the source
[5] = biological target: T1, human CD33 on primary human …; assay: cell-based or functional assay; remark: listed apart in the source

Binder | Maximal Downregulation (% CD33 remaining) [1] | Receptor downregulation (EC50) [1] | Fold affinity improvement over parental Ab (AB-H14) (human CD33 [2]) | Kd (human CD33 [2]) | koff (human CD33 [2]) | kon (human CD33 [2]) | Fold Change to Chimeric Ab (human CD33 [3]) | Kd (human CD33 [3]) | koff (human CD33 [3]) | kon (human CD33 [3]) | Maximal Downregulation (% CD33 remaining) [4] | Receptor downregulation (EC50) [4] | Fold affinity improvement over parental Ab (AB-H63) (human CD33 [2]) | Maximal Downregulation (% CD33 remaining) [5] | Receptor downregulation (EC50) [5]
B1 | 18.6% | 0.0927 nM | 9.73 fold | ≤ 0.299 nM | ≤ 0.0002 s⁻¹ | 670000 M⁻¹ s⁻¹ |  |  |  |  |  |  |  |  | 
B2 |  |  |  |  |  |  | 1.43 fold | 1.13 nM | 0.0014 s⁻¹ | 1.23e+06 M⁻¹ s⁻¹ | 21.2% | 0.0933 nM |  |  | 
B3 |  |  |  |  |  |  | 0.62 fold | 2.63 nM | 0.00182 s⁻¹ | 690000 M⁻¹ s⁻¹ | 22.6% | 0.0901 nM |  |  | 
B4 |  |  |  |  |  |  | 0.27 fold | 6.02 nM | 0.00228 s⁻¹ | 379000 M⁻¹ s⁻¹ | 22.2% | 0.0725 nM |  |  | 
B5 |  |  |  |  |  |  | 0.28 fold | 5.86 nM | 0.00234 s⁻¹ | 400000 M⁻¹ s⁻¹ | 21.9% | 0.0519 nM |  |  | 
B6 |  |  |  | 0.613 nM |  |  |  |  |  |  |  |  | 4.44 fold | 26.8% | 0.0629 nM
B7 |  |  |  |  |  |  |  |  |  |  |  |  |  | 23.4% | 0.0293 nM
B8 |  |  |  |  |  |  | 0.87 fold | 1.88 nM | 0.00351 s⁻¹ | 1.87e+06 M⁻¹ s⁻¹ | 25.8% | 0.0412 nM |  |  | 
B9 |  |  |  |  |  |  |  |  |  |  |  |  |  | 27.2% | 0.0522 nM
B10 | 23.8% | 0.055 nM | 14.4 fold | 0.202 nM | 0.0002 s⁻¹ | 991000 M⁻¹ s⁻¹ |  |  |  |  |  |  |  |  | 
B11 |  |  |  |  |  |  | 1.18 fold | 1.37 nM | 0.00151 s⁻¹ | 1.1e+06 M⁻¹ s⁻¹ | 20.6% | 0.169 nM |  |  | 
B12 | 25.4% | 0.043 nM | 12.3 fold | 0.236 nM | 0.0002 s⁻¹ | 847000 M⁻¹ s⁻¹ |  |  |  |  |  |  |  |  | 
B13 |  |  |  |  |  |  | 1.03 fold | 1.58 nM | 0.00186 s⁻¹ | 1.18e+06 M⁻¹ s⁻¹ | 25% | 0.127 nM |  |  | 
B14 |  |  |  |  |  |  | 1.22 fold | 1.33 nM | 0.00162 s⁻¹ | 1.22e+06 M⁻¹ s⁻¹ | 23.3% | 0.0772 nM |  |  | 
